Laboratory results: patent US20170112792

Experiments:
Erk1, P27361 = target: T1, Erk1, P27361
T1 chain: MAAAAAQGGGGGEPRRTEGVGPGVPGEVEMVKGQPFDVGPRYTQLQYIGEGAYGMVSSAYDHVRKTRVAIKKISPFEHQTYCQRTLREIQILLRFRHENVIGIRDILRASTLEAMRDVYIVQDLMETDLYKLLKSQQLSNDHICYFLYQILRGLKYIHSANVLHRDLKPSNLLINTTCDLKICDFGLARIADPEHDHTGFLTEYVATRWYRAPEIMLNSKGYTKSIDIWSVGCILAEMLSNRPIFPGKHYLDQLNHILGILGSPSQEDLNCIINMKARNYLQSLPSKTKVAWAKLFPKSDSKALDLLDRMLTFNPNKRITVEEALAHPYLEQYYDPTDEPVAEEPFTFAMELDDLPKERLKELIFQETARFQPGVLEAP

Sequence of Erk2, P28482 (P28482 whole entry): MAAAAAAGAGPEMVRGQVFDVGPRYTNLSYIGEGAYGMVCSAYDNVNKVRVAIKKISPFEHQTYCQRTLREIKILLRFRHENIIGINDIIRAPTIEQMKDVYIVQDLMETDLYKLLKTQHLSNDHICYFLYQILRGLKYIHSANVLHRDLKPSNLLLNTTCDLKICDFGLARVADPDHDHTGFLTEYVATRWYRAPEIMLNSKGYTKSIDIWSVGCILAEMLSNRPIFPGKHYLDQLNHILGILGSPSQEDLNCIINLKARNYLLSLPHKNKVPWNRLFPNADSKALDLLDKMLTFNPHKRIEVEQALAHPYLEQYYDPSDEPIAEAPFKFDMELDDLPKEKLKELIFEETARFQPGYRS

B1: Flag-Rab2A (protein)
chain: MAYAYLFKYIIIGDTGVGKSCLLLQFTDKRFQPVHDLTIGVEFGARMITIDGKQIKLQIWDTAGQESFRSITRSYYRGAAGALLVYDITRRDTFNHLTTWLEDARQHSNSNMVIMLIGNKSDLESRREVKKEEGEAFAREHGLIFMETSAKTASNVEEAFINTAKEIYEKIQEGVFDINNEANGIKIGPQHAATNATHAGNQGGQQAGGGCC
Q: For B1, which Erk1/2 phosphorylation (Erk1, P27361) is on record?
A: The Erk1/2 phosphorylation was “Flag-Rab2A expression restored Erk1/2 phosphorylation in a dose-dependent manner”.

Q: And the Erk1/2 phosphorylation (Erk2, P28482)?
A: The Erk1/2 phosphorylation was “Flag-Rab2A expression restored Erk1/2 phosphorylation in a dose-dependent manner”.
